Test results as given in paper PMC12016552, “Growth-coupled continuous directed evolution by MutaT7 enables efficient and automated enzyme engineering” (Applied and Environmental Microbiology, 2025).
Substitutions are numbered along the chain they refer to. Names may count otherwise.

Substrate: O=S1(=O)OC(c2ccc(O)c(Cl)c2)(c2ccc(O[C@@H]3O[C@H](CO)[C@H](O)[C@H](O)[C@H]3O)c(Cl)c2)c2ccccc21
Assay: purified protein
Assay type: biochemical, Pyrococcus furiosus
Conditions: 25 °C, PBS pH 7.4 (CPRG assay as described for screening; screening buffer contained 2.7% glucose)

B1: CelB (Pyrococcus furiosus) (protein)
chain: MKFPKNFMFGYSWSGFQFEMGLPGSEVESDWWVWVHDKENIASGLVSGDLPENGPAYWHLYKQDHDIAEKLGMDCIRGGIEWARIFPKPTFDVKVDVEKDEEGNIISVDVPESTIKELEKIANMEALEHYRKIYSDWKERGKTFILNLYHWPLPLWIHDPIAVRKLGPDRAPAGWLDEKTVVEFVKFAAFVAYHLDDLVDMWSTMNEPNVVYNQGYINLRSGFPPGYLSFEAAEKAKFNLIQAHIGAYDAIKEYSEKSVGVIYAFAWHDPLAEEYKDEVEEIRKKDYEFVTILHSKGKLDWIGVNYYSRLVYGAKDGHLVPLPGYGFMSERGGFAKSGRPASDFGWEMYPEGLENLLKYLNNAYELPMIITENGMADAADRYRPHYLVSHLKAVYNAMKEGADVRGYLHWSLTDNYEWAQGFRMRFGLVYVDFETKKRYLRPSALVFREIATQKEIPEELAHLADLKFVTRK
notes: homotetramer
  Km: 29.1 ± 1.9 µM
  kcat: 0.89 ± 0.04 s⁻¹

B2: CelB (Pyrococcus furiosus; K436N/L412W/Y416H) (protein)
chain: B1 chain with L412W, Y416H, K436N
notes: homotetramer
Variant W10
  Km: 17.6 ± 3.6 µM
  kcat: 1.15 ± 0.18 s⁻¹

B3: CelB (Pyrococcus furiosus; E365K/G72E) (protein)
chain: B1 chain with G72E, E365K
notes: homotetramer
Variant AA10
  Km: 19.3 ± 2.5 µM
  kcat: 1.16 ± 0.10 s⁻¹
